In patent publication US20260191905A1 (MODERNATX, published 2026):
One block for each binder: values may come before it.

Columns and labels:
[1] = target: T1, human GPC3 recombinant protein (human, UniProt P51654 25-559); experiment: SPR (Biacore) off-rate screen, periplasmic extract over human GPC3 on CM5; R0 45.4
T1 construct: also called huGPC3; Human GPC3 protein
Protocol: (§1) Human GPC3 protein in acetate buffer, pH 5.0, was immobilized in a sensor chip CM5 (GE Healthcare; Cat. Nr. BR-1005-30; Lot. Nr.10245232) and successful immobilization was confirmed by using a commercially available human GPC3 antibody (R&D cat. nr. MAB2119) and the anti-GPC3-VHH-Fc (both at 10 μg/mL). Periplasmic extracts from the MP were diluted in Biacore Buffer (0.01 M HEPES pH 7.4, 0.15 M NaCl, 3 mM EDTA, 0.05% P20) and injected over 2 minutes at 30 μL/min. 10 μl of 10 mM NaOH/1M NaCl were injected between samples and off-rates were measured over 5 minutes. Off-rate ([…]) were calculated using BIACORE software 1:1 interaction Langmuir binding model.

[2] = target: T1, human GPC3 recombinant protein; experiment: SPR (Biacore) off-rate screen, periplasmic extract over human GPC3 on CM5; R0 6.06; asterisk not explained on the sheet
Protocol: as §1

[3] = target: T1, human GPC3 recombinant protein; experiment: SPR (Biacore) off-rate screen, periplasmic extract over human GPC3 on CM5; R0 41.0
Protocol: as §1

[4] = target: T2, human GPC3 on HepG2 cells (human, UniProt P51654 25-554); experiment: FACS, phage-displayed clone on HepG2, well D3; same clone on A-431 (no GPC3): 1102.21
T2 construct: whole, on cells

[5] = target: T2, human GPC3 on HepG2 cells; experiment: FACS, periplasmic extract 1:5 + anti-c-myc + GAM-APC on HepG2, well D3; same on A-431: 802.83
[6] = target: T1, human GPC3 recombinant protein; experiment: SPR (Biacore), summary table; Chi2 0.59; Profile 'Good'; FIG. 18 prints 5.24E-09
Protocol: (§2) Affinities of the 19 VHH-His tagged domains were then determined by BiaCore assay. Human GPC3 protein (Sino biological cat. nr. 10088-H08H-500) was immobilized on CM5 sensor chip (GE Healthcare) as antigen. Purified VHH-His tagged domains were diluted in BiaCore buffer (0.01 M HEPES pH 7.4, 0.15 M NaCl, 3 mM EDTA, 0.05% P20) to 500 nM and injected over 2 minutes at […] followed by a half dilution series to 7.8 nM. 10 μl of 10 mM NaOH/1M NaCl were injected between samples and then off-rate wash was 5 minutes.

[7] = target: T2, human GPC3 on HepG2 cells; experiment: FACS, phage-displayed clone on HepG2, well D3; same clone on A-431 (no GPC3): 1.16%
[8] = target: T1, human GPC3 recombinant protein; experiment: SPR (Biacore) off-rate screen, periplasmic extract over human GPC3 on CM5; R0 47.2
Protocol: as §1

[9] = target: T2, human GPC3 on HepG2 cells; experiment: FACS, periplasmic extract 1:5 + anti-c-myc + GAM-APC on HepG2, well D3; same on A-431: 0.36%
[10] = target: T1, human GPC3 recombinant protein; experiment: SPR (Biacore), VHH-His over human GPC3 on CM5; fit 197.5 - 26.0 nM; Rmax 14.1 RU; Chi2 0.59
Protocol: as §2

[11] = target: T1, human GPC3 recombinant protein; experiment: SPR (Biacore) off-rate screen, periplasmic extract over human GPC3 on CM5; R0 30.5
Protocol: as §1

[12] = target: T2, human GPC3 on HepG2 cells; experiment: FACS, periplasmic extract 1:5 + anti-c-myc + GAM-APC on HepG2, well C3; same on A-431: 0.12%
[13] = target: T1, human GPC3 recombinant protein; experiment: SPR (Biacore), VHH-His over human GPC3 on CM5; fit 250 - 7.8 nM; Rmax 9.47 RU; Chi2 0.43
Protocol: as §2

[14] = target: T1, human GPC3 recombinant protein; experiment: SPR (Biacore) off-rate screen, periplasmic extract over human GPC3 on CM5; R0 31.6
Protocol: as §1

[15] = target: T2, human GPC3 on HepG2 cells; experiment: FACS, phage-displayed clone on HepG2, well C3; same clone on A-431 (no GPC3): 1100.37
[16] = target: T1, human GPC3 recombinant protein; experiment: SPR (Biacore), summary table; Chi2 0.43; Profile 'Good'; FIG. 18 prints 6.64E-09
Protocol: as §2

[17] = target: T2, human GPC3 on HepG2 cells; experiment: FACS, periplasmic extract 1:5 + anti-c-myc + GAM-APC on HepG2, well C3; same on A-431: 697.44
[18] = target: T2, human GPC3 on HepG2 cells; experiment: FACS, phage-displayed clone on HepG2, well C3; same clone on A-431 (no GPC3): 1.31%
[19] = target: T1, human GPC3 recombinant protein; experiment: SPR (Biacore), VHH-His over human GPC3 on CM5; fit 131.7 - 17.34 nM; Rmax 9.97 RU; Chi2 0.266
Protocol: as §2

[20] = target: T2, human GPC3 on HepG2 cells; experiment: FACS, phage-displayed clone on HepG2, well F3; same clone on A-431 (no GPC3): 1412.11
[21] = target: T1, human GPC3 recombinant protein; experiment: SPR (Biacore), summary table; Chi2 0.266; Profile 'Good'
Protocol: as §2

[22] = target: T2, human GPC3 on HepG2 cells; experiment: FACS, periplasmic extract 1:5 + anti-c-myc + GAM-APC on HepG2, well F3; same on A-431: 0.18%
[23] = target: T1, human GPC3 recombinant protein; experiment: SPR (Biacore) off-rate screen, periplasmic extract over human GPC3 on CM5; R0 39.2
Protocol: as §1

[24] = target: T2, human GPC3 on HepG2 cells; experiment: FACS, phage-displayed clone on HepG2, well F3; same clone on A-431 (no GPC3): 1.39%
[25] = target: T2, human GPC3 on HepG2 cells; experiment: FACS, periplasmic extract 1:5 + anti-c-myc + GAM-APC on HepG2, well F3; same on A-431: 965.7
[26] = target: T1, human GPC3 recombinant protein; experiment: SPR (Biacore) off-rate screen, periplasmic extract over human GPC3 on CM5; R0 56.5
Protocol: as §1

[27] = target: T1, human GPC3 recombinant protein; experiment: SPR (Biacore) off-rate screen, periplasmic extract over human GPC3 on CM5; R0 24.6
Protocol: as §1

[28] = target: T1, human GPC3 recombinant protein; experiment: SPR (Biacore), VHH-His over human GPC3 on CM5; fit 87.8 - 17.34 nM; Rmax 38.9 RU; Chi2 0.636
Protocol: as §2

[29] = target: T1, human GPC3 recombinant protein; experiment: SPR (Biacore), summary table; Chi2 0.636; Profile 'Very good'
[30] = target: T1, human GPC3 recombinant protein; experiment: SPR (Biacore) off-rate screen, periplasmic extract over human GPC3 on CM5; R0 107.0
Protocol: as §1

T1 sequence (P51654 25-559 limits assumed): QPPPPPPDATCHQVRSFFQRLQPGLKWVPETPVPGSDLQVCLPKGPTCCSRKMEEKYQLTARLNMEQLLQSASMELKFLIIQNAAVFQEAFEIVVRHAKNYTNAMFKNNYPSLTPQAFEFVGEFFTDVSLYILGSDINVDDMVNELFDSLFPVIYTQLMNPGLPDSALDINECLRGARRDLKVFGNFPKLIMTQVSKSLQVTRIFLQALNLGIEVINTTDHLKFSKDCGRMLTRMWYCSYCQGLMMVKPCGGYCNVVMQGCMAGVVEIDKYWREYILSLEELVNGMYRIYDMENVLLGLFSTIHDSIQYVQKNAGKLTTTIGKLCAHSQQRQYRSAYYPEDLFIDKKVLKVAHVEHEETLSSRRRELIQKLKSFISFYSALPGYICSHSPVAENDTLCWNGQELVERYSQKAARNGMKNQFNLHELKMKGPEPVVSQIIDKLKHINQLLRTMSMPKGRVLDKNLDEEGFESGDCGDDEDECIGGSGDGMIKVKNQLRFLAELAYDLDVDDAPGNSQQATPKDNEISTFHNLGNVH
T2 sequence (P51654 25-554 limits assumed): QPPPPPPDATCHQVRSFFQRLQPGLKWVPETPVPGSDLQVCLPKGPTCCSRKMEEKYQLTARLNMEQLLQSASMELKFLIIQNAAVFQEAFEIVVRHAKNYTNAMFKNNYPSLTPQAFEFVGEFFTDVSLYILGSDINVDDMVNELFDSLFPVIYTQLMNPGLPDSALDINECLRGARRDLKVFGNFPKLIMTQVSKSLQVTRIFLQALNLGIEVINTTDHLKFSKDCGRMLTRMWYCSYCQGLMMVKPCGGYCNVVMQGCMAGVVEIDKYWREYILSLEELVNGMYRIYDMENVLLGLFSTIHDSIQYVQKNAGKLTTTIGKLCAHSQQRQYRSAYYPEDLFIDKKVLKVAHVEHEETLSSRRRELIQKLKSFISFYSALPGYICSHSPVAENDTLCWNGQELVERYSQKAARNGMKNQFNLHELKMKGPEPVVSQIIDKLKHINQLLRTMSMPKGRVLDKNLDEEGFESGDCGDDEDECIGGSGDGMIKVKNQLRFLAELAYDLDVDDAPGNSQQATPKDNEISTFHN

B1: VH20 (VHH)
VHH: EVQLVESGGGLVQPGGSLRLSCAASGFTFSSYAMSWVRQAPGKEPEWISSISGSGSSTYYADSLKGRFTISRDNSKNTLYLQMNSLRAEDTAVYYCSKDPRFGEPPFDYWGQGTTVTVSS
notes: also called VHH20
- koff [1]: 0.00249 s⁻¹

B2: VH30 (VHH)
VHH: QVQLVESGGGLVQPGGSLRLSCAASGFIFSSYAMSWVRQAPGKEPEWVSSISGGGSSTYYADSLEGRFTISRDNSKNTLYLQMNSLRAEDTAVYYCSKDPRFFEPPFDYWGQGTLVTVSS
notes: also called VHH30
- koff [2]: 0.00983 s⁻¹

B4: anti-GPC3 VHH-His tagged domain VHH5 (VHH)
VHH: EVQLVESGGGLVQPGGSLRLSCAASGFTFSSYAMSWVRQAPGKEPEWVSSISGGGSSAYYADSLKGRFTISRDNSKNTLYLQMNSLRAEDTAVYYCSRDPRFGEPPFDYWGQGTTVTVSS
notes: Produced from a mammalian expression vector as a His fusion; not shown: His tag
- Mean FL2-A [4]: 57900
- Mean FL4-A [5]: 812
- Kd [6]: 3.68 nM
- % of Binding [7]: 74.3%
- koff [8]: 0.00366 s⁻¹
- % of Binding [9]: 0.5%
- Ka [10]: 1.91e+08 M⁻¹
- Kd [10]: 5.24 nM
- koff [10]: 0.00253 s⁻¹
- kon [10]: 484000 M⁻¹ s⁻¹

B7: anti-GPC3 VHH-His tagged domain VHH9 (VHH)
VHH: QVQLVESGGGLVQPGGSLRLSCAASGFTFSSYAMSWVRQAPGKEPEWVSSISGGGSSTYYADSLKGRFTISRDNSKNTLYLQMNSLRAEDTAVYYCSRDPRFGEPPLDYWGQGTTVTVSS
notes: as for B4
- Ka [19]: 1.63e+08 M⁻¹
- Kd [19]: 6.15 nM
- koff [19]: 0.00326 s⁻¹
- kon [19]: 530000 M⁻¹ s⁻¹
- Mean FL2-A [20]: 130000
- Kd [21]: 6.15 nM
- % of Binding [22]: 0.52%
- koff [23]: 0.0062 s⁻¹
- % of Binding [24]: 89%
- Mean FL4-A [25]: 1830

B9: VH24 (VHH)
VHH: EVQLVESGGGLVQPGGSLRLSCAASGFTFSSYAMSWVRQAPGKEPEWVSSISGGGTSTYYADSLEGRFTISRDNSKNTLYLQMNSLRAEDTAVYYCSKDPRFGEPPFDYWGQGTLVTVSS
notes: also called VHH24
- koff [27]: 0.00367 s⁻¹

More lines, now with the values ahead:

- koff [3]: 0.00507 s⁻¹
B3: VH34 (VHH)
VHH: QVQLVESGGGLVRPGGSLRLSCAASGFTFSSYAMSWVRQAPGKEPEWVSSISGGGSSTYYADSLKGRFTISRDNSKNTLYLQMNSLRAEDTAVYYCSRDPRFGEPPFDYWGQGTLVTVSS
notes: also called VHH34

- koff [11]: 0.00378 s⁻¹
B5: VH25 (VHH)
VHH: EVQLVESGGGLVQPGGSLRLSCAASGFTFSSYAMSWVRQAPGKESEWVSSISGSGSSTYYADSLKGRFTISRDNSKNTLYLQMNSLRAEDTAVYYCSKDPRFGEPPFDYWGQGTLVTVSS
notes: also called VHH25

- % of Binding [12]: 0.64%
- Ka [13]: 1.51e+08 M⁻¹
- Kd [13]: 6.64 nM
- koff [13]: 0.00197 s⁻¹
- kon [13]: 296000 M⁻¹ s⁻¹
- koff [14]: 0.00221 s⁻¹
- Mean FL2-A [15]: 43500
- Kd [16]: 4.34 nM
- Mean FL4-A [17]: 915
- % of Binding [18]: 68.7%
B6: anti-GPC3 VHH-His tagged domain VHH6 (VHH)
VHH: QVQLVESGGGLVQPGGSLRLSCAASGFIFSSYAMSWVRQAPGKEPEWVSSISGGGSSTYYADSLEGRFTISRDNSKNTLYLQMNSLRAEDTAVYYCSKDPRFGEPPFDYWGQGTTVTVSS
notes: as for B4

- koff [26]: 0.00282 s⁻¹
B8: VH22 (VHH)
VHH: EVQLVESGGGLVQPGGSLRLSCAASGFTFSSYAMSWVRQAPGKEPEWVSSISGGGSSTYYADSLKGRFTISRDNSKNTLYLQMDSLRAEDTAVYYCSRDPRFGEPPFDYWGQGTLVTVSS
notes: also called VHH22

- Ka [28]: 3.66e+08 M⁻¹
- Kd [28]: 2.73 nM
- koff [28]: 0.000967 s⁻¹
- kon [28]: 354000 M⁻¹ s⁻¹
- Kd [29]: 2.73 nM
- koff [30]: 0.00184 s⁻¹
B10: anti-GPC3 VHH-His tagged domain VHH2 (VHH)
VHH: QVQLVESGGGLVQPGGSLRLSCAASGFTFSNYLMHWVRQAPGKGLEWLSNINSDGSSTYYADSVKGRFTISRDNSKNTLYLQMNSLRAEDTAVYYCTVGAFDYWGQVTTGTVSS
notes: as for B4
